Biological target: TP53 (Homo sapiens) (UniProt P04637)
Test: EMSA-seq

TP53 (Homo sapiens), sequence (P04637 whole entry): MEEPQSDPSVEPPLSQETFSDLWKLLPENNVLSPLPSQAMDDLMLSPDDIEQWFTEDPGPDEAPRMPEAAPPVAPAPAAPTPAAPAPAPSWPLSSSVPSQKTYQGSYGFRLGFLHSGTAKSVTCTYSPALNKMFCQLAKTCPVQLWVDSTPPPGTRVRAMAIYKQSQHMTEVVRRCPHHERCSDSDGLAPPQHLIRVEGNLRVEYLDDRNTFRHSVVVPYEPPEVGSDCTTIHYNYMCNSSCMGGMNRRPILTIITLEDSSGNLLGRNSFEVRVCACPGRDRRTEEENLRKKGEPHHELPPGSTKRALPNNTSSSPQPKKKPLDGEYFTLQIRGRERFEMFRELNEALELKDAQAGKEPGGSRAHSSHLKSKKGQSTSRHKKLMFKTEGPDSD

“GATGGACCCTATACGCGGCCGCCCTGGAGAATCCCGGTGCCGAGGCCGCTCAATTGGTCGTAGACAGCTCTAGCACCGCTTAAACGCACGTACGCGCTGTCCCCCGCGTTTTAACCGCCAAGGGGATTACTCCCTAGTCTCCAGGCACGTGTCAGATATATACATCCTGTGCGGGCATGTCCGGGCATGTCCGCCGGTGCCAGTCGGATAGTGTTCC (double strand) [High SHL 8 nucleosome (linker)]” showed a Kd of 19 nM.
